This is an account of results in PMC11024197 (Nature Communications, 2024).

What all share (assay): ITC; PEX14 (1-104) (20-60 uM, concentration corrected with the fit) in the cell, peptide or fragment in the syringe; 25 °C, 20 mM Tris pH 7.5, 50 mM NaCl; one-site binding model; single runs of triplicates and their averages
What all share (details): both partners purified

One assay deals with T1, PEX5 W4 peptide (human).
T1 construct: 15-mer with the W4 WxxxY motif of human PEX5 (R183, Y185, Y188 are named in the text); source: synthetic peptide, bought: PSL (Peptide Specialty Laboratories)

The target of the next assay is T2, PEX5 W2 peptide (human).
T2 construct: 15-mer with the W2 WxxxF motif of human PEX5; source: synthetic peptide, bought: PSL (Peptide Specialty Laboratories)

The target of the next assay is T3, PEX5 W3 peptide (human).
T3 construct: 15-mer with the W3 WxxxY motif of human PEX5; source: synthetic peptide, bought: PSL (Peptide Specialty Laboratories)

“And” between values parts separate entries of the source, which are not always exact repeats. Identical values can stand only once.

B1: PEX14 NTD (1-104) (domain or fragment, human, UniProt O75381 1-104, looked up)
chain: MASSEQAEQPSQPSSTPGSENVLPREPLIATAVKFLQNSRVRQSPLATRRAFLKKKGLTDEEIDMAFQQSGTAADEPSSLGPATQVVPVQPPHLISQPYSPAGS
notes: human PEX14 (UniProtKB O75381), N-terminal domain, residues 1-104; also called PEX14 (1-104); source: E. coli BL21 (DE3), purified (Ni-NTA, SUMO cleavage, reverse Ni-NTA, SEC)
The term Kd denotes the free concentration of one partner at which half of the binding sites on the other are occupied at equilibrium, for simple one-to-one binding. A high value points to a looser complex. As for B1, the Kd with PEX5 W4 peptide is 2510 nM and 3260 nM and 3640 nM and 3140 nM; with PEX5 W2 peptide, 70.4 nM and 69.1 nM and 81.2 nM and 73.6 nM; with PEX5 W3 peptide, 188 nM and 97.5 nM and 124 nM and 136 nM.
